Measured values published in US10167314 (NORTHWESTERN UNIVERSITY, dated 2019).
Ends that are not written are not given here.

Biological target: N-methyl-D-aspartate (NMDA) receptor (rat)
Assay: cell-based or functional assay

intrinsic activity relative to D-serine, pharmacologically isolated NMDA receptor current in the hippocampal slice assay: 23%
Binder: TPPT-NH2 [GLYX-13 (L-threonyl-L-prolyl-L-prolyl-L-threonine amide)]
